Columns and labels:
AP2 μ2 160-435 [1] = molecular target: AP2 μ2 160-435 (UniProt Q96CW1); test: FP displacement of FITC-ATG9A probe; settings: reference: unphosphorylated peptide; sites Y781
AP2 μ2 160-435 [2] = molecular target: AP2 μ2 160-435 (UniProt Q96CW1); test: fluorescence polarisation
[3] = molecular target: FITC-labeled ACE2(775–790) peptide, pTyr781 (human); test: fluorescence polarisation
[4] = molecular target: FITC-labeled ACE2(775–790) peptide, unphosphorylated (human); test: fluorescence polarisation
[5] = molecular target: FITC-labeled ACE2(775–790) peptide, pSer783 (human); test: fluorescence polarisation
[6] = molecular target: MAP1LC3B ATG8 (2–119) (human) (UniProt Q9GZQ8); test: fluorescence polarisation
[7] = molecular target: MAP1LC3A ATG8 (2–119) (human) (UniProt Q9H492); test: fluorescence polarisation
[8] = molecular target: MAP1LC3C ATG8 (2–125) (human) (UniProt Q9BXW4); test: fluorescence polarisation
Sequence of MAP1LC3C ATG8 (2–125) (human) (Q9BXW4 2-125): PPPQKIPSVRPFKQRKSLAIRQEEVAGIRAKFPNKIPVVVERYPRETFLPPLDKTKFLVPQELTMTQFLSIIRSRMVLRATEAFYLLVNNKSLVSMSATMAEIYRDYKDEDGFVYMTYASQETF

[9] = molecular target: GABARAP ATG8 (2-115) (human) (UniProt O95166); test: fluorescence polarisation
Sequence of GABARAP ATG8 (2-115) (human) (O95166 2-115): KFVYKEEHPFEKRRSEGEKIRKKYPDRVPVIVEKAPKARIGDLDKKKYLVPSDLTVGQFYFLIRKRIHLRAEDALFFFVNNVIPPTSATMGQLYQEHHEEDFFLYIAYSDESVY

[10] = molecular target: […]2 ATG8 (2–115) (human) (UniProt P60520); test: fluorescence polarisation
Sequence of […]2 ATG8 (2–115) (human) (P60520 2-115): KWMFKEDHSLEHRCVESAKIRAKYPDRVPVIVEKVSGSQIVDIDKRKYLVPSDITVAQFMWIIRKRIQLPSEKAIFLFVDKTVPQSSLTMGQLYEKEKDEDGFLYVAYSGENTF

Row | Substance | Kd [3] [µM] | Kd [4] [µM] | Kd [5] [µM] | Ki [6] [µM] | Ki [7] [µM] | Ki [8] [µM] | other results
1 | ACE2 775-790 (from UniProt Q9BYF1) pTyr781 peptide | – | – | – | – | – | – | Ki (AP2 μ2 160-435 [1]): lost; reference 101 ± 5
2 | ACE2(775–790) peptide, unphosphorylated, unlabeled (displacing peptide) | – | – | – | – | – | – | Ki (AP2 μ2 160-435 [2]): 101 µM
3 | AP2 μ2 (160–435) (from UniProt Q96CW1 160-435) (domain or fragment) | > 100 | 60 | 30 | – | – | – | –
4 | FYN SH2 (142–251) (from UniProt P06241 142-251) (domain or fragment) | – | > 100 | > 100 | – | – | – | –
5 | GABARAP ATG8 (2-115) (from UniProt O95166 2-115) (domain or fragment) | > 100 | > 100 | > 100 | – | – | – | –
6 | MAP1LC3A ATG8 (2–119) (from UniProt Q9H492 2-119) (domain or fragment) | > 100 | > 100 | > 100 | – | – | – | –
7 | NCK1 SH2 (275–377) (from UniProt P16333 275-377) (domain or fragment) | > 100 | > 100 | > 100 | – | – | – | –
8 | integrin β3 tail peptide, pSer778 | – | – | – | > 100 | 29.4 | 16.1 | –
9 | integrin β3 tail peptide, pThr777 | – | – | – | > 100 | > 100 | 73 | Ki [9]: 47 µM
10 | integrin β3 tail peptide, pThr779 | – | – | – | > 100 | > 100 | 82 | Ki [10]: > 100 µM
11 | integrin β3 tail peptide, pThr779/pTyr785 | – | – | – | 15 | 8.5 | 8 | Ki [9]: 17.8 µM
12 | integrin β3 tail peptide, pTyr785 | – | – | – | 81 | 38 | 83 | Ki [10]: 89 µM
13 | integrin β3 tail peptide, unphosphorylated | – | – | – | > 100 | > 100 | > 100 | Ki [9]: > 100 µM; Ki [10]: > 100 µM

— publication PMC7928716
